Consider 2 molecules from doi:10.1101/2024.07.16.603655 (bioRxiv, 2024).

In data set [1] the target is dsRBD3-6xHis (dsRNA binding domain 3 of zebrafish Prkra) (zebrafish). Nature of the data set: native gel or EMSA. (In general: In EMSA bound probe runs differently from free probe, usually more slowly.)
The data set “native gel or EMSA” deals with the molecule itself. Briefly: native gel or EMSA.

For orientation: stoichiometry N means the number of molecules, sites or subunits per partner or assembly. The molecule “dsRBD3-6xHis (dsRNA binding domain 3 of zebrafish Prkra) (domain or fragment)” gave a stoichiometry N in data set [1] of 2.

B1: Prkra-6xHis (recombinant wild-type zebrafish Prkra) (natural protein, UniProt B0V3F8 1-282, looked up)
chain: MAPQRSQDKTPIQLLHEYGIKISSAPKYELIHADGDAHQPSFMFSVTIGEVTCKGRGSTKKAAKHEAAEAALKLLKRDSQIIDQRDNNGLSPEAGEASNPVGILQELAMQRVWCLPEYVVFMETGPGHMKEFTIACRLEGLEETGSGSSKKLARRAAAENMIAKLQSLSGSSEITWSPPSRVYVESLRNSTGEKVSLLKRTPLSLPNTDYIQMLLEISLELGFQVTYIDIDELTVNGQYQCLVELSTRPVTVCHGSGVTSSNAHNAAAHNALQYIKMVASKH
Regarding B1, the “stoichiometry N” value in the data set “native gel or EMSA” was roughly 2.
